Patent publication CN112300289A (UNIV CHINA PHARMA, dated 2021)

B1: RGD4C融合抗TNFα纳米抗体 N端-VHH-Linker-RGD4C-6HIS-C端 (VHH)
VHH: QVQLVESGGGLVQAGGSLRLSCTASGQTSSTADMGWFRQPPGKGREFVARISGIDGTTYYDEPVKGRFTISRDKAQNTVYLQMDSLKPEDTAVYYCRSPRYADQWSAYDYWGQGTQVTVSS
notes: also called V-L-R-H; RGD4C-anti-TNFα-Nanobody
B2: RGD4C融合抗TNFα纳米抗体 N端-RGD4C-Linker-6HIS-VHH-C端 (VHH)
VHH: B1 VHH
B3: RGD4C融合抗TNFα纳米抗体 N端-VHH-6HIS-Linker-RGD4C-C端 (VHH)
VHH: B1 VHH

What was measured:
整合素αvβ3 = target: T1, 整合素αvβ3 (human, UniProt P06756 31-1048; P05106 27-788); assay: concluded from the MDA-MB-231 cell adhesion assay; no direct binding assay
T1 construct: whole, on cells; The adhesion assay used whole MDA-MB-231 cells; also called 整合素αvβ3受体; 玻连蛋白(Vitronectin,VN)受体

TNFα = assay: cell-based or functional assay
Sequence of TNFα (P01375 77-233): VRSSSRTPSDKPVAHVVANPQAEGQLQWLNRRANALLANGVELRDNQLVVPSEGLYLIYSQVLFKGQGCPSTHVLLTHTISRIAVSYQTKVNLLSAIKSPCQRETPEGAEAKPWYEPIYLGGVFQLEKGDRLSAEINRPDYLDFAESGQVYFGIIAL

T1 sequence (P06756 31-1048, chain 1 of 2): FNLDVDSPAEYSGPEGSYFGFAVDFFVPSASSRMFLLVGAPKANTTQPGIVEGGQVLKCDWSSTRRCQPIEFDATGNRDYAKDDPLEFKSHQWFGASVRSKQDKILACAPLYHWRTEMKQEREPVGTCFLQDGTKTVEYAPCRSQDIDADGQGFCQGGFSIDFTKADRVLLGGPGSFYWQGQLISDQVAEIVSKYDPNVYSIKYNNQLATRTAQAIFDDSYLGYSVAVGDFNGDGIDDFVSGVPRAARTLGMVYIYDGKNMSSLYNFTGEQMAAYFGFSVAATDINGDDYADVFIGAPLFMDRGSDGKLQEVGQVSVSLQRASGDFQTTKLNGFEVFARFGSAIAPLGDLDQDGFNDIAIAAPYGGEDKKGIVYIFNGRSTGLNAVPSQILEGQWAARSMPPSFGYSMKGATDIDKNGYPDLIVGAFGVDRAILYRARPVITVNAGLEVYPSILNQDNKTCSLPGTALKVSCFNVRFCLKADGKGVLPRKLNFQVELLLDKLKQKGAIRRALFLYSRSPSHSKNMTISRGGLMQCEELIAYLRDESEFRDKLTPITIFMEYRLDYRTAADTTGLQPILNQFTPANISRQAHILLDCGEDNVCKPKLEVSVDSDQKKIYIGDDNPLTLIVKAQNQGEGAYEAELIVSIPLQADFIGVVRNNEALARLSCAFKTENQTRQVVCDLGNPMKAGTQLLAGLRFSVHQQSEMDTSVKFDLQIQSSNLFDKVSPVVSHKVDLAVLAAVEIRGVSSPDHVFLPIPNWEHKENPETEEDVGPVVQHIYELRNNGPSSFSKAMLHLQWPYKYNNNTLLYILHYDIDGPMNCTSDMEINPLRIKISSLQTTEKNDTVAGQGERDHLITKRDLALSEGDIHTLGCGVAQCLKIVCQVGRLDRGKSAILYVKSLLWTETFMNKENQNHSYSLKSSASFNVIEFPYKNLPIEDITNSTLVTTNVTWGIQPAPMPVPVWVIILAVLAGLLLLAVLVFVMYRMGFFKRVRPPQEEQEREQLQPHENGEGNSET
T1 sequence (P05106 27-788, chain 2 of 2): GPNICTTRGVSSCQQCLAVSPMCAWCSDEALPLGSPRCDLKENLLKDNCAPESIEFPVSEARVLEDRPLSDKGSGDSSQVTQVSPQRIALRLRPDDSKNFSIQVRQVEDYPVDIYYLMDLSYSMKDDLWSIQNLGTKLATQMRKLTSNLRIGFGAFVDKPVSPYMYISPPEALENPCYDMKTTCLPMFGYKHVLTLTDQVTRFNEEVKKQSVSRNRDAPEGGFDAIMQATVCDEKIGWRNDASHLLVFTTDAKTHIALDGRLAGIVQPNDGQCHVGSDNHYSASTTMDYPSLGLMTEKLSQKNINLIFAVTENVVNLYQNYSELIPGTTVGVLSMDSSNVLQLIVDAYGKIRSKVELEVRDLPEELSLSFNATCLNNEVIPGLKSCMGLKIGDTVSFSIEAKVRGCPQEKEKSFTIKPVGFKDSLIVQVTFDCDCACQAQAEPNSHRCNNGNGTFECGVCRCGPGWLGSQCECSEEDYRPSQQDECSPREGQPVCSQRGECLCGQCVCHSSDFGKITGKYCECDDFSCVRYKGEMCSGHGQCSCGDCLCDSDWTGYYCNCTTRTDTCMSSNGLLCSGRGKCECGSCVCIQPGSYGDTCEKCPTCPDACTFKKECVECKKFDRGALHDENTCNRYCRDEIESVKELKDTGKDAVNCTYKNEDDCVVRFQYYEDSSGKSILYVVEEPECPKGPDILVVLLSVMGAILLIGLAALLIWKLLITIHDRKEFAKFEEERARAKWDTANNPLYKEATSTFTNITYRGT

| Binder | binding result (整合素αvβ3) | IC50, inhibition of TNFα cytotoxicity on L929 cells (MTT) (TNFα) [nM] |
| --- | --- | --- |
| B1 | binds | 0.106 |
| B2 | – | 0.187 |
| B3 | – | 0.113 |
